We go through 1 substance from patent US20070082843A1.

The experiment deals with melanocortin-4 receptor (MC4R) (UniProt P32245). Nature of the experiment: competitive binding vs [125I]-NDP-alpha-MSH (receptor not given; MC4R by Example 3).
Chain of UniProt P32245 (P32245 whole entry): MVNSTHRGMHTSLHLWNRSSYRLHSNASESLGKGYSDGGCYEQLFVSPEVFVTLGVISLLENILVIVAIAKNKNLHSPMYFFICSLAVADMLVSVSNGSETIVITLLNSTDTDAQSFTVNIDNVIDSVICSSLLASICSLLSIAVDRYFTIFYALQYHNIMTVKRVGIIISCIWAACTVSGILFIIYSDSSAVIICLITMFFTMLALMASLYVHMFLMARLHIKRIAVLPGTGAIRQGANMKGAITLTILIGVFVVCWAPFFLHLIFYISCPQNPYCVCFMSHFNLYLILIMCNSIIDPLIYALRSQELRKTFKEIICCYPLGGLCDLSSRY

For orientation: IC50 means the concentration that gives 50% inhibition. Read a high IC50 as weaker potency in that assay. melanotan II (MTII) (peptide) yielded an IC50 of 5 to 30 nM.
